Assay results from patent publication US20090123572.

T1: recombinant squamous cell carcinoma antigen 1 (SCCA-1), P29508
T1 chain: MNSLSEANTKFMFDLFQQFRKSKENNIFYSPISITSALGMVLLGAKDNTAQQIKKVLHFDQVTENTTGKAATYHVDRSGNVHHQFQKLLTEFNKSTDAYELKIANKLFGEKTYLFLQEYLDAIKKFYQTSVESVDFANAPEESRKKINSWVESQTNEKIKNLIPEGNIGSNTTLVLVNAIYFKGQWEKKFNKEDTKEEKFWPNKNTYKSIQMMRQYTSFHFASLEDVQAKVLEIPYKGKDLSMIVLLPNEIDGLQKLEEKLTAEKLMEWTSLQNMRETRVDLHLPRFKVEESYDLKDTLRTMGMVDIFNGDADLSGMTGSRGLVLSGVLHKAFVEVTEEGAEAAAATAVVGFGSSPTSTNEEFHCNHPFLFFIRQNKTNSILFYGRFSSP

T2: recombinant ICAD protein, O00273
T2 chain: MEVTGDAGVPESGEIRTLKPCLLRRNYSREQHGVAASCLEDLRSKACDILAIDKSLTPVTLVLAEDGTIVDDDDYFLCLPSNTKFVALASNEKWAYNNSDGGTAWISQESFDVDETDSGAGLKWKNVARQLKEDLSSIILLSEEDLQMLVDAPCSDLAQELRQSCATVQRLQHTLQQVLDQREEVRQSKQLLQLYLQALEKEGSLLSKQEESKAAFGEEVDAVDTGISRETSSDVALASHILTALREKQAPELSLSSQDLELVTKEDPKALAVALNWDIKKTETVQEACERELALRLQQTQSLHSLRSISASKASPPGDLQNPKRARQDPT


Assays:
[1] = target: T1, recombinant squamous cell carcinoma …
[2] = target: T2, recombinant ICAD protein, O00273

Protein | enzyme activity of recombinant caspase incubated with SCCA-1 (synthetic caspase substrates) [1] | other results
recombinant caspase-5 (protein) DQKITSVKPLLQIEAGPPESAESTNILKLCPREEFLRLCKKNHDEIYPIKKREDRRRLALIICNTKFDHLPARNGAHYDIVGMKRLLQGLGYTVVDEKNLTARDMESVLRAFAARPEHKSSDSTFLVLMSHGILEGICGTAHKKKKPDVLLYDTIFQIFNNRNCLSLKDKPKVIIVQACRGEKHGELWVRDSPASLALISSQSSENLEADSVCKIHEEKDFIAFCSSTPHNVSWRDRTRGSIFITELITCFQKYSCCCHLMEIFRKVQKSFEVPQAKAQMPTIERATLTRDFYLFPGN | None of the caspase members (1 to 10) were affected with respect to enzyme activity when recombinant caspase was incubated with SCCA-1 | 
recombinant caspase-6 (protein) AFYKREMFDPAEKYKMDHRRRGIALIFNHERFFWHLTLPERRGTCADRDNLTRRFSDLGFEVKCFNDLKAEELLLKIHEVSTVSHADADCFVCVFLSHGEGNHIYAYDAKIEIQTLTGLFKGDKCHSLVGKPKIFIIQACRGNQHDVPVIPLDVVDNQTEKLDTNITEVDAASVYTLPAGADFLMCYSVAEGYYSHRETVNGSWYIQDLCEMLGKYGSSLEFTELLTLVNRKVSQRRVDFCKDPSAIGKKQVPCFASMLTKKLHFFPKSN | None of the caspase members (1 to 10) were affected with respect to enzyme activity when recombinant caspase was incubated with SCCA-1 | 
recombinant caspase-8 (protein) SESQTLDKVYQMKSKPRGYCLIINNHNFAKAREKVPKLHSIRDRNGTHLDAGALTTTFEELHFEIKPHDDCTVEQIYEILKIYQLMDHSNMDCFICCILSHGDKGIIYGTDGQEAPIYELTSQFTGLKCPSLAGKPKVFFIQACQGDNYQKGIPVETDSEEQPYLEMDLSSPQTRYIPDEADFLLGMATVNNCVSYRNPAEGTWYIQSLCQSLRERCPRGDDILTILTEVNYEVSNKDDKKNMGKQMPQPTFTLRKKLVFPSD | None of the caspase members (1 to 10) were affected with respect to enzyme activity when recombinant caspase was incubated with SCCA-1 | 
purified caspase-14 from human cornified cells (heterodimer of 17 KDa large subunit and 11 KDa small subunit) (protein) chain 1: SLEEEKYDMSGARLALILCVTKAREGSEEDLDALEHMFRQLRFESTMKRDPTAEQFQEELEKFQQAIDSREDPVSCAFVVLMAHGREGFLKGEDGEMVKLENLFEALNNKNCQALRAKPKVYIIQACRGEQRDPGETVGGD chain 2: KDSPQTIPTYTDALHVYSTVEGYIAYRHDQKGSCFIQTLVDVFTKRKGHILELLTEVTRRMAEAELVQEGKARKTNPEIQSTLRKRLYLQ |  | ICAD cleavage products (Western blot with FL331 antibody) [2]: Cleavage products were observed at 33 and 27 KDa.; decomposition of recombinant ICAD in the presence of kosmotropic salt (Western blot with anti-ICAD IgG) [2]: since the amount of intact ICAD protein decreases and two major decomposition products increase in the presence of kosmotropic salt, purified caspase-14 demonstrated limited decomposing action on ICAD; fragments formed from ICAD; sequence analysis of the cleavage sites [2]: caspase-14 formed fragments resembling 12 KDa and 35 KDa from ICAD. Sequence analysis indicated identical cleavage sites.; hydrolysis of recombinant ICAD in an ordinary caspase assay buffer (Western blot with anti-ICAD IgG) [2]: purified caspase-14 did not demonstrate any hydrolysis activity on ICAD
recombinant caspase-7 (protein) AKPDRSSFVPSLFSKKKKNVTMRSIKTTRDRVPTYQYNMNFEKLGKCIIINNKNFDKVTGMGVRNGTDKDAEALFKCFRSLGFDVIVYNDCSCAKMQDLLKKASEEDHTNAACFACILLSHGEENVIYGKDGVTPIKDLTAHFRGDRCKTLLEKPKLFFIQACRGTELDDGIQADSGPINDTDANPRYKIPVEADFLFAYSTVPGYYSWRSPGRGSWFVQALCSILEEHGKDLEIMQILTRVNDRVARHFESQSDDPHFHEKKQIPCVVSMLTKELYFSQ | None of the caspase members (1 to 10) were affected with respect to enzyme activity when recombinant caspase was incubated with SCCA-1 | 
recombinant caspase-4 (protein) QISPNKKAHPNMEAGPPESGESTDALKLCPHEEFLRLCKERAEEIYPIKERNNRTRLALIICNTEFDHLPPRNGADFDITGMKELLEGLDYSVDVEENLTARDMESALRAFATRPEHKSSDSTFLVLMSHGILEGICGTVHDEKKPDVLLYDTIFQIFNNRNCLSLKDKPKVIIVQACRGANRGELWVRDSPASLEVASSQSSENLEEDAVYKTHVEKDFIAFCSSTPHNVSWRDSTMGSIFITQLITCFQKYSWCCHLEEVFRKVQQSFETPRAKAQMPTIERLSMTRYFYLFPGN | None of the caspase members (1 to 10) were affected with respect to enzyme activity when recombinant caspase was incubated with SCCA-1 | 
recombinant caspase-1 (protein) NPAMPTSSGSEGNVKLCSLEEAQRIWKQKSAEIYPIMDKSSRTRLALIICNEEFDSIPRRTGAEVDITGMTMLLQNLGYSVDVKKNLTASDMTTELEAFAHRPEHKTSDSTFLVFMSHGIREGICGKKHSEQVPDILQLNAIFNMLNTKNCPSLKDKPKVIIIQACRGDSPGVVWFKDSVGVSGNLSLPTTEEFEDDAIKKAHIEKDFIAFCSSTPDNVSWRHPTMGSVFIGRLIEHMQEYACSCDVEEIFRKVRFSFEQPDGRAQMPTTERVTLTRCFYLFPGH | None of the caspase members (1 to 10) were affected with respect to enzyme activity when recombinant caspase was incubated with SCCA-1 | 
recombinant caspase-9 (protein) GALESLRGNADLAYILSMEPCGHCLIINNVNFCRESGLRTRTGSNIDCEKLRRRFSSLHFMVEVKGDLTAKKMVLALLELAQQDHGALDCCVVVILSHGCQASHLQFPGAVYGTDGCPVSVEKIVNIFNGTSCPSLGGKPKLFFIQACGGEQKDHGFEVASTSPEDESPGSNPEPDATPFQEGLRTFDQLDAISSLPTPSDIFVSYSTFPGFVSWRDPKSGSWYVETLDDIFEQWAHSEDLQSLLLRVANAVSVKGIYKQMPGCFNFLRKKLFFKTS | None of the caspase members (1 to 10) were affected with respect to enzyme activity when recombinant caspase was incubated with SCCA-1 | 
recombinant caspase-3 (protein) SGISLDNSYKMDYPEMGLCIIINNKNFHKSTGMTSRSGTDVDAANLRETFRNLKYEVRNKNDLTREEIVELMRDVSKEDHSKRSSFVCVLLSHGEEGIIFGTNGPVDLKKITNFFRGDRCRSLTGKPKLFIIQACRGTELDCGIETDSGVDDDMACHKIPVEADFLYAYSTAPGYYSWRNSKDGSWFIQSLCAMLKQYADKLEFMHILTRVNRKVATEFESFSFDATFHAKKQIPCIVSMLTKELYFYH | None of the caspase members (1 to 10) were affected with respect to enzyme activity when recombinant caspase was incubated with SCCA-1 | caspase-3 activity on the synthetic substrate DEVD-MCA or the natural substrate ICAD [1]: SCCA-1 did not inhibit caspase-3 activity using the synthetic substrate DEVD-MCA or the natural substrate ICAD.
recombinant caspase-10 (protein) VKTFLEALPQESWQNKHAGSNGNRATNGAPSLVSRGMQGASANTLNSETSTKRAAVYRMNRNHRGLCVIVNNHSFTSLKDRQGTHKDAEILSHVFQWLGFTVHIHNNVTKVEMEMVLQKQKCNPAHADGDCFVFCILTHGRFGAVYSSDEALIPIREIMSHFTALQCPRLAEKPKLFFIQACQGEEIQPSVSIEADALNPEQAPTSLQDSIPAEADFLLGLATVPGYVSFRHVEEGSWYIQSLCNHLKKLVPRMLKFLEKTMEIRGRKRTVWGAKQISATSLPTAISAQTPRPPMRRWSSVS | None of the caspase members (1 to 10) were affected with respect to enzyme activity when recombinant caspase was incubated with SCCA-1 | 
recombinant caspase-2 (protein) GPVCLQVKPCTPEFYQTHFQLAYRLQSRPRGLALVLSNVHFTGEKELEFRSGGDVDHSTLVTLFKLLGYDVHVLCDQTAQEMQEKLQNFAQLPAHRVTDSCIVALLSHGVEGAIYGVDGKLLQLQEVFQLFDNANCPSLQNKPKMFFIQACRGDETDRGVDQQDGKNHAGSPGCEESDAGKEKLPKMRLPTRSDMICGYACLKGTAAMRNTKRGSWYIEALAQVFSERACDMHVADMLVKVNALIKDREGYAPGTEFHRCKEMSEYCSTLCRHLYLFPGHPPT | None of the caspase members (1 to 10) were affected with respect to enzyme activity when recombinant caspase was incubated with SCCA-1 | 
